# According to patent US20110236397:
# Experiments:
# [1] = system: full-length CD2AP, GFP-tagged (GFP-CD2AP fusion protein, 98 kD)
# [2] = system: CD2AP with the cathepsin L cleavage site LSAAE deleted
# [3] = system: C-terminal FLAG-tagged CD2AP (71 kD)
# Sequence of purified FLAG-CD2AP (chain, as listed by the source): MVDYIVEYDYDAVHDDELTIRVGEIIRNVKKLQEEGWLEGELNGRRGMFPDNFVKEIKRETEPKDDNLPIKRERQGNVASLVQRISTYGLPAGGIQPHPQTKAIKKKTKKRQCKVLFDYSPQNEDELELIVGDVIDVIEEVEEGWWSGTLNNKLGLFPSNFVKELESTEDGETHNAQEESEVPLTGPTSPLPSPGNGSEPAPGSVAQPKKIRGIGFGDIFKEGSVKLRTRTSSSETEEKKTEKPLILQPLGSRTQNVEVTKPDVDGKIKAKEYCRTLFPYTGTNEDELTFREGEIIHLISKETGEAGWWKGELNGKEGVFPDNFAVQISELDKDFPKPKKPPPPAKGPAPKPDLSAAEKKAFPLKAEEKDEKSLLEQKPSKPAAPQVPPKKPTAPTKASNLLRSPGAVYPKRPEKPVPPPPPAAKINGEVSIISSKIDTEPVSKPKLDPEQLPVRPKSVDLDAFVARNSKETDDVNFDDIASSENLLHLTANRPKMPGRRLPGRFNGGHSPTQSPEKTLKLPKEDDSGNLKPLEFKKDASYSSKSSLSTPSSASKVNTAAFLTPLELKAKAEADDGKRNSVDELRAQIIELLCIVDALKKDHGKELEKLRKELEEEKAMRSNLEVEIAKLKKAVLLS
substance,measurement,setting,value
"purified cathepsin L enzyme (Sigma, specific activity 4.13 U/mg)","in vitro cleavage assay, immunoblot",[1],"At neutral pH, CD2AP was cleaved into a stable 55 kD fragment as detected with an anti-GFP antibody"
same,"in vitro cleavage assay, immunoblot",[2],"In absence of this cleavage site, the characteristic p32 fragment was no longer observed after enzymatic digest with cathepsin L enzyme"
same,"in vitro cleavage assay, immunoblot",[3],This experiment yielded a C-terminal 44 kD fragment of CD2AP; the anti-FLAG antibody also detected a strong band corresponding to p32 fragment
same,"in vitro cleavage assay, silver stain",purified FLAG-CD2AP,cleavage assays performed at neutral conditions (pH 7.0) yielded a stable 32 kD CD2AP fragment (p32)
